72 sequences from the supplement of paper PMC10567573 can be followed below.

± gives the standard deviation.

This series can be described thus: protein stability index of a GFP-peptide fusion (GPS, HEK-293T) (PSI 1-6); higher = more stable.
[1] abbreviates: treatment: DMSO, c terminus: a fixed tail appended.
[2] abbreviates: treatment: MLN4924 1 uM, 8 h, c terminus: a fixed tail appended.
The mark [3] stands for this setting: treatment: DMSO, c terminus: native.
The mark [4] stands for this setting: treatment: MLN4924 1 uM, 8 h, c terminus: native.
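Also: 24-mer peptide tiles fused after GFP, lentivirally expressed, FACS-sorted into six equal bins by GFP/DsRed ratio, decoded by Illumina sequencing, PSI is the read-weighted mean bin number.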

AAARGGQCPGLGPAPTPTPPGRLG [ZBED3]: the protein stability index under setting [1] came to 4.36 ± 0.24 and the protein stability index under setting [2] turned out to be 4.63 ± 0.34.
For AAKKVAPLMAKAIRDYKGRFSRR [ELOA2], the protein stability index is 2.79 ± 0.33 under setting [3] and 3.02 ± 0.62 under setting [4].
On to AALLGSNSESWGWDIGRGKLYHQS [SPSB2], for which the protein stability index came to 2.6 ± 0.63 under setting [1] and 3.06 ± 0.13 under setting [2].
For AAPAVRASSSPVTLRQKTVDWRRV [SLA] the same measures were 3.2 ± 0.54 and 3.17 ± 0.72.
Take ACIAYIRITQYLDAGGIPRTAQSE [CAMK2A]: the protein stability index reads like this: under setting [1], 2.64 ± 0.42; under setting [2], 2.81 ± 0.39.
ADTTTGSAAGPPLSEDDKLQGAAS [EHMT1]: the protein stability index is, setting by setting: under setting [1], 5.46 ± 0.23; under setting [2], 5.51 ± 0.18.
On to AEEHREKLLKQMRILWKKIQENQR [TRIM43], for which the protein stability index under setting [1] amounted to 2.46 ± 0.24 and the protein stability index under setting [2] worked out at 2.21 ± 0.18.
As to AEETANLPPSPPPSPASEQTVTVE [MAP2], the protein stability index by setting is: under setting [1], 5.05 ± 0.18; under setting [2], 5.18 ± 0.17.
Turning to AELVLLTLGQAWQGYVSDIRRFLS [DFFB], the protein stability index reads like this: under setting [1], 2.12 ± 0.17; under setting [2], 2.06 ± 0.21.
For AEVQAKLENAEVLELTVRRVQGVL [HES6] the same measures were 2.71 ± 0.38 and 2.58 ± 0.25.
With AFAQRPSSAPDLMCLSPDRKMEVE [CDC25B], the protein stability index under setting [1] came to 4.97 ± 0.3 and the protein stability index under setting [2] worked out at 4.78 ± 0.14.
The corresponding values for AFDYNSLSPTQRQKNFELAFTMAE [SMTNL2] are 2.76 ± 0.3 and 3.09 ± 0.29.
As for AFHVRRTNRVKECLAKGTFSDVTF [RHOBTB2], the protein stability index is 2.57 ± 0.24 under setting [1] and 2.78 ± 0.4 under setting [2].
For the sequence AFYKEQLARLEERSSEFYRVTTEQ [CHCHD3], the protein stability index is, setting by setting: under setting [1], 3.29 ± 0.12; under setting [2], 3.38 ± 0.34.
In the case of AGADLEHESEGGRTPLMKAARAGH [ANKRD17], the protein stability index reads like this: under setting [1], 5.07 ± 0.29; under setting [2], 4.95 ± 0.26.
For AGDEAVFAQYDSFHVDSAAEYYRL [TNXB] the same measures were 3.51 ± 0.38 and 3.68 ± 0.13.
With AGGEENMTETDAFYKREMFDPAEK [CASP6], the protein stability index is, setting by setting: under setting [1], 5.13 ± 0.32; under setting [2], 5.37 ± 0.3.
For AGTKVFEVPEMSPVTCCDVSSNNR [TLE6] the same measures were 4.13 ± 0.26 and 4.17 ± 0.33.
Take AHQHRDKMQQSKNQVVSSTNGELN [CSNK1G3]: the protein stability index under setting [1] is 5.02 ± 0.42 and the protein stability index under setting [2] was found to be 5.1 ± 0.25.
The corresponding values for AIGVSISLSSIATCVYIAEIAPQH [SLC2A12] are 3.17 ± 0.13 and 3.34 ± 0.38.
The corresponding values for AIKEMIENCLDAKSTSIQVIVKEG [MLH1] are 2.79 ± 0.19 and 2.74 ± 0.22.
The corresponding values for AIVGGMALGVAGLAGLIGLAVSKS [FIS1] are 3.38 ± 0.82 and 3.12 ± 0.51.
AKGNTALHDCAESGSLEILQLLLG [FEM1A]: the protein stability index was 2.41 ± 0.23 under setting [1] and 2.16 ± 0.26 under setting [2].
Take AKQLQAVKRKIRDESLCPQHHEAL [TRIM39]: the protein stability index is, setting by setting: under setting [1], 3.99 ± 0.2; under setting [2], 3.97 ± 0.19.
The sequence ALAPKQELPSALESHEVPGTLSMG [ZNF24] displayed a protein stability index under setting [1] of 4.59 ± 0.25 and a protein stability index under setting [2] of 4.75 ± 0.3.
As to ALGPLRTPAPPLWIGLFLVATGSQ, the protein stability index worked out at 2.64 ± 0.57 under setting [1] and 2.27 ± 0.14 under setting [2].
Consider ALLESSLRQAQQNMDPKAAEEEEE [CCND1], for which the protein stability index is, setting by setting: under setting [1], 5.28 ± 0.29; under setting [2], 5.42 ± 0.25.
For ALQEKLWNVAAPLYLKQSDLASAA [INTS4] the same measures were 2.31 ± 0.17 and 2.27 ± 0.3.
Regarding ALVKEREKQLAKKEQSKELQMKLE [FAM50A], the protein stability index reads like this: under setting [1], 4.87 ± 0.076; under setting [2], 4.64 ± 0.37.
Consider AMGDHSKKKPGTAMCVGCGSQIHD [ISL2], for which the protein stability index stood at 4.18 ± 0.32 under setting [1] and 4.3 ± 0.26 under setting [2].
For AMLREKFPEFCSSPSPPVEVKIEE [INTS3], the protein stability index was 4.51 ± 0.3 under setting [1] and 4.65 ± 0.12 under setting [2].
The corresponding values for ANAQIQILTRSWEEVSTLNAQIPE [CD207] are 3.52 ± 0.18 and 3.53 ± 0.2.
For APEYFEKNEPYLEAACNDVDRWPA [DENND6A] the same measures were 4.59 ± 0.29 and 4.47 ± 0.38.
For APPSPRDISMEIDSPENMMRHIRF [CCDC6] the same measures were 3.51 ± 0.28 and 3.65 ± 0.26.
Turning to APQGGMAALNMSLGMVTPVNDLRG [ADD1], the protein stability index runs as follows: under setting [1], 3.83 ± 0.23; under setting [2], 3.77 ± 0.097.
For the sequence AQDLMDGLPPGDSNQLAWFDTDL [CTNNB1], the protein stability index is, setting by setting: under setting [3], 5.29 ± 0.094; under setting [4], 5.09 ± 0.081.
AQSEAEKKLKKDDKKKELQELNEL [ZC3H15] showed a protein stability index under setting [1] of 5.56 ± 0.23 and a protein stability index under setting [2] of 5.53 ± 0.21.
The sequence AQTFIALCATDFKFAMYPPSMIAT [CCND2] had a protein stability index under setting [1] of 2.75 ± 0.71 and a protein stability index under setting [2] of 3.04 ± 0.62.
For AQVPDTRWSRVGGQRFYSRVLSPL the same measures were 2.41 ± 0.69 and 2.75 ± 0.43.
On to ARFITDFLDNGYGHCLLDKPEAPL [ADAMTS4], for which the protein stability index is 2.19 ± 0.2 under setting [1] and 2.01 ± 0.22 under setting [2].
For the sequence ASAETLPAGFRVSTLGTLQPPPAP [PPFIA4], the protein stability index is, setting by setting: under setting [1], 3.94 ± 0.35; under setting [2], 4.06 ± 0.23.
As for ASDYSKKSNVLKLKTADWRVFLFQ [PSD2], the protein stability index under setting [1] worked out at 2.12 ± 0.42 and the protein stability index under setting [2] came to 2.23 ± 0.19.
The corresponding values for ASHNGISYKDLDVIFGVELPGNEE [TENT5D] are 4.03 ± 0.16 and 4.01 ± 0.13.
As for ASLKGYQWLKDKILSEEGRRQQAK [KCNAB2], the protein stability index came out at 3.69 ± 0.18 under setting [1] and 3.67 ± 0.21 under setting [2].
As to ASVLLQAVLYPRFMGTISDVKTNV [CD207], the protein stability index under setting [1] is 2.76 ± 0.38 and the protein stability index under setting [2] came to 2.69 ± 0.41.
For the sequence ATADFADVADDFENYHKLRRSSSK [NETO1], the protein stability index under setting [1] amounted to 4.99 ± 0.096 and the protein stability index under setting [2] stood at 5.196 ± 0.05.
With ATKKLGFKHPVIGVHVRRTDKVGT [FUT8], the protein stability index runs as follows: under setting [1], 3.12 ± 0.091; under setting [2], 3.15 ± 0.21.
For ATTYKHGVLTRKTHADMDGKRTPR [PSD2] the same measures were 4.44 ± 0.16 and 4.63 ± 0.26.
As for AVCLLGVGTMVGADILAGREDNSG [SLC35F2], the protein stability index by setting is: under setting [1], 3.17 ± 0.5; under setting [2], 3.11 ± 0.2.
As to AVLFTGIVALYIASGLTGFIGLEV [ATL3], the protein stability index was determined as 3.49 ± 0.43 under setting [1] and 3.52 ± 0.35 under setting [2].
Sequence AVLPTAFRVAKKRAPKVLGTTLVV [GDAP1] returned a protein stability index under setting [1] of 2.18 ± 0.2 and a protein stability index under setting [2] of 2.15 ± 0.2.
Sequence AWLNEHRKNPYPTKGEKIMLAIIT [IRX6] came in with a protein stability index under setting [1] of 2.7 ± 0.42 and a protein stability index under setting [2] of 2.51 ± 0.41.
In the case of CAECSQYLDETCTCFVRDGKTYCK [ISL2], the protein stability index reads like this: under setting [1], 4.98 ± 0.29; under setting [2], 4.74 ± 0.37.
Consider CCAAPGPHVALAVRYNRVGILRRI [ANKRD9], for which the protein stability index stood at 2.37 ± 0.26 under setting [1] and 2.49 ± 0.2 under setting [2].
On to CCINSHCGWPRGKDAPCYESDTDI [DRICH1], for which the protein stability index is, setting by setting: under setting [1], 2.94 ± 0.3; under setting [2], 3.02 ± 0.29.
The corresponding values for CCSSADICPKCWTLMTMAIRIIDR [PRIM1] are 2.25 ± 0.18 and 2.44 ± 0.55.
As for CERHEKGVLHKHQRALHKYSLMKR [SNX8], the protein stability index is, setting by setting: under setting [1], 3.56 ± 0.29; under setting [2], 3.8 ± 0.31.
For CEVIFCVFIFYYVVEEILELHIHR [PKD2L1], the protein stability index is, setting by setting: under setting [1], 3 ± 0.52; under setting [2], 3.07 ± 0.11.
Regarding CFVLGFFYPVMLILFLVIGGMLNF [SOAT2], the protein stability index reads like this: under setting [1], 3.27 ± 0.52; under setting [2], 3.53 ± 0.61.
For CLGALCENTCLLRGFSGGILAFLV [TSPAN10] the same measures were 2.34 ± 0.57 and 2.55 ± 0.33.
Consider CMKIPTGQEYAAKIINTKKLSARD [CAMK2D], for which the protein stability index runs as follows: under setting [1], 3.7 ± 0.69; under setting [2], 3.83 ± 0.42.
Turning to CPRIAPADSGRYRASPTRTAPLPM [ELOA2], the protein stability index under setting [1] amounted to 3.63 ± 0.17 and the protein stability index under setting [2] was 3.76 ± 0.41.
CPTPARLATTEKKTEQQRRREKAV [NOP53]: the protein stability index is, setting by setting: under setting [1], 5.19 ± 0.27; under setting [2], 5.28 ± 0.24.
As for CRPLLPSCTTRLCQEEQLRSHENK [PSD2], the protein stability index was 4 ± 0.13 under setting [1] and 3.88 ± 0.34 under setting [2].
Take CRQRLIFEQTPALTKHEWTEALGC [ZNF8]: the protein stability index runs as follows: under setting [1], 2.38 ± 0.2; under setting [2], 2.42 ± 0.26.
As to CRYPYEYEGGHIKGAVNLHMEEEV [CDC25A], the protein stability index is, setting by setting: under setting [1], 3.8 ± 0.34; under setting [2], 3.7 ± 0.33.
CSECGESFSRSSRLMSHQRTHTG [ZNF263]: the protein stability index is 3.02 ± 0.6 under setting [3] and 3.53 ± 0.95 under setting [4].
For CSSCQRSWASAQVQILCHTYWEHW [RTP4], the protein stability index is, setting by setting: under setting [1], 2.3 ± 0.52; under setting [2], 2.36 ± 0.28.
Regarding CSSSTRSVLKRPERSQEESPPGST [CDC25A], the protein stability index is, setting by setting: under setting [1], 5.17 ± 0.21; under setting [2], 4.95 ± 0.34.
In the case of CYMATTKSQTACLPFVLAAAVSRK [EHMT1], the protein stability index under setting [1] was 2.14 ± 0.3 and the protein stability index under setting [2] is 2.15 ± 0.15.
DCSEEYLERQLQAEFIESGQYRAN [TAF7L]: the protein stability index is, setting by setting: under setting [1], 4.09 ± 0.35; under setting [2], 4.3 ± 0.12.
With DDEEFEYRHVMLPKDIAKLVPKTH [CKS1B], the protein stability index by setting is: under setting [1], 4.38 ± 0.23; under setting [2], 4.39 ± 0.32.
